This data set concerns the molecule itself. The data set can be described thus: cross-linking; 0.05 mM αB-crystallin with 0.3 mM glutaraldehyde in PBS (20 mM phosphate buffer, 150 mM NaCl, pH 7.2), 20 °C, 30 h; dialysed against PBS; examined by SDS-PAGE.

B1: recombinant human αB-crystallin (natural protein, UniProt P02511 1-175, looked up)
chain: MDIAIHHPWIRRPFFPFHSPSRLFDQFFGEHLLESDLFPTSTSLSPFYLRPPSFLRAPSWFDTGLSEMRLEKDRFSVNLDVKHFSPEELKVKVLGDVIEVHGKHEERQDEHGFISREFHRKYRIPADVDPLTITSSLSSDGVLTVNGPRKQVSGPERTIPITREEKPAVTAAPKK
notes: also called native αB-crystallin; source: E. coli BL21(DE3), purified (ammonium sulfate fractionation, Q-Sepharose anion exchange)
For B1, the binding result was “binds”.

The values above are taken from paper PMC2570560, “Subunit Mobility and the Chaperone Activity of Recombinant αB-Crystallin” (The Open Biochemistry Journal, 2008).
